Source: patent US20080207488A1, “Method for Detecting Peptides Comprising a Cross-B Structure” (priority 2005, published 2008)

Key:
[1] = biological target: T1, tPA (Homo sapiens, UniProt P00750); assay: Plasminogen-activation assay (tPA-mediated Plg to Pls, S-2251); type: biochemical; details: 100 μg ml^−1 protein
T1 construct: purchased Boehringer-Ingelheim (Actilyse, Alteplase)
Procedure: Plasmin (Pls) activity was assayed as described^7. Peptides and proteins that were tested for their stimulatory ability were regularly used at 100 μg ml^−1. […] Chromogenic substrate S-2251 (Chromogenix, Instrumentation Laboratory SpA, Milano, Italy) was used to measure Pls activity. Conversion of zymogen factor XII (#233490, Calbiochem, EMD Biosciences, Inc., San Diego, Calif.) to proteolytically active factor XII (factor XIIa) was assayed by measurement of the conversion of chromogenic substrate Chromozym-PK (Roche Diagnostics, Almere, The Netherlands) by kallikrein. Chromozym-PK was used at a concentration of 0.3 mM. Factor XII, human plasma prekallikrein (#529583, Calbiochem) and human plasma cofactor high-molecular weight kininogen (#422686, Calbiochem) were used at concentrations of 1 μg ml^−1. […] Assays were performed using microtiter plates (Costar, Cambridge, Mass., USA). Peptides and proteins were tested for their ability to activate factor XII. […] The conversion of Chromozym-PK was recorded kinetically at 37° C. for at least 60 minutes. […] With S-2222, activation of factor XII in plasma was measured, using 60% v/v plasma, diluted with substrate and H2O with or without potential cofactor. Furthermore, auto-activation of factor XII was measured by incubating 53 μg ml^−1 purified factor XII in 50 mM Tris-HCl buffer pH 7.5 with 1 mM EDTA and 0.001% v/v Triton-X100, with S-2222 and H2O with or without potential cofactor.
Formulated protein therapeutics were obtained from the local hospital pharmacy and were used as supplied by the manufacturers. […] Enhancement in fluorescence of ThT and Congo red was measured with all formulated protein therapeutics. […]
To prepare structurally altered ovalbumin (OVA) with amyloid cross-β structure conformation, purified OVA (Sigma, A-7641, lot 071k7094) was heated to 85° C. […] Native OVA (nOVA) and heat-denatured OVA (dOVA) were tested in the ThT fluorescence assay and in the Plg-activation assay. In the fluorescence assay and in the Plg-activation assay, 25 and 100 μg ml^−1 nOVA and dOVA were tested, respectively. […]

[2] = ThT fluorescence of CpG-ODN-protein mixtures; type: physicochemical; details: for increased ThT fluorescence: 1 mg ml^−1 protein exposed to 21.4 μg ml^−1 CPG-ODN (FIG. 4F); for increase in ThT fluorescence: 1 mg ml^−1 protein, 30 min. at room temperature (FIG. 4D, E)
Procedure: (§1) Fluorescence of ThT-protein/peptide adducts was measured as follows. […] Fluorescence was measured at 485 nm upon excitation at 435 nm. Background signals from buffer, buffer with ThT and protein/peptide solution without ThT were subtracted from corresponding measurements with protein solution incubated with ThT. […] Fluorescence was measured in triplicate on a Hitachi F-4500 fluorescence spectrophotometer (Ltd., Tokyo, Japan).
Enhancement of ThT fluorescence was measured similarly as described above. […]

[3] = ThT fluorescence of LPS-protein mixtures; type: physicochemical
Procedure: as §1
Subsequently, the ability to enhance ThT fluorescence was determined with 40× diluted solution, as described above. […]

[4] = system: anti-β2GPI auto-antibodies; assay: Interference with binding of anti-β2GPI autoantibodies to immobilized β2GPI; design: species or system human; details: antibodies from Anti-phospholipid syndrome patients
Procedure: When plasma derived β2GPI is coated onto hydrophilic ELISA plates, anti-β2GPI auto-antibodies isolated from plasma of antiphospholipid syndrome auto-immune patients can bind^14. To study the influence of co-incubations of the coated β2GPI with the antibodies together with plasma β2GPI or recombinant β2GPI, concentration series of β2GPI were added to the patient antibodies. Subsequently, binding of the antibodies to coated β2GPI was determined.

[5] = ThT fluorescence of β2GPI with or without CL vesicles or DXS500k; type: physicochemical
Procedure: ThT fluorescence of β2GPI was measured as follows. […] CL vesicles were prepared according to an established procedure. Briefly, CL was dried under a stream of nitrogen. The lipids were resuspended to a concentration of 10 mg ml^−1 in 25 mM Tris-HCl, pH 7.3, 150 mM NaCl by vigorous agitation, using a vortex. In the ThT fluorescence assay, fluorescence of β2GPI in buffer, of CL or DXS500k in buffer, of buffer and ThT alone, and of β2GPI-CL adducts and β2GPI-DXS500k adducts, with or without ThT, was recorded as described above (section ThT fluorescence). In addition, TEM images were recorded with CL, β2GPI from human plasma, with or without CL, and with recombinant β2GPI, as described^1.

[6] = system: Balb/c mice; assay: Immunization of Balb/c mice with ovalbumin and amyloid-like ovalbumin; type: in vivo; details: without adjuvant
Procedure: Eight to ten weeks old female Balb/c mice are immunized with OVA according to two immunization regimes (Central Animal Laboratories, Utrecht University, The Netherlands). Pre-immune serum was collected prior to the immunizations. In one regime two groups of five mice were subcutaneously injected five consecutive days per week, for three consecutive weeks. Doses comprised 10 μg native OVA or heat-denatured OVA for each injection. Alternatively, according to the second protocol, three groups of five mice were injected once intraperitoneally with doses comprising 5 μg nOVA, 5 μg OVA or 5 μg native OVA mixed 1:1 with complete Freund's adjuvant (CFA). Each week, blood was taken. After three weeks, a second dose was given. Incomplete Freund's adjuvant (IFA) was used instead of CFA. Blood was taken after one week after the start of the immunization. Antibody titers in sera were determined and sera were analyzed for the presence of cross-β structure conformation specific antibodies. For this purpose, nOVA was coated onto wells of 96-wells ELISA plates and incubated with dilution series of sera. Sera of the groups of five mice were pooled prior to the analyses. Plates were washed and subsequently incubated with peroxidase-conjugated rabbit anti-mouse immunoglobulins (RAMPO, P0260, DAKOCytomation, Glostrup, Denmark). Plates were subsequently developed with tetramethylbenzidine (TMB) substrate. […]

[7] = biological target: T2, human fibronectin finger 4,5 (Fn F4,5) fragment (Homo sapiens, UniProt P02751); assay: ELISA, binding of fibronectin F4,5 to coated (mis)folded proteins; details: coated protein, FIG. 7D-H
T2 construct: human fibronectin finger 4,5 (Fn F4,5) fragment; made in house; host or cells: HEK293E cells, transient transfection, protein purified from the medium
T2 sequence (P02751 182-276 limits assumed): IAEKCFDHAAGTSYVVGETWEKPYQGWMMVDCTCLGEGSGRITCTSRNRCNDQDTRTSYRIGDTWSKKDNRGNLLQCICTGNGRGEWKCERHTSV
Procedure: The plates were blocked using Blocking reagent (Roche 1112589). A dilution series of the protein of interest was applied to the coated proteins and wells were subsequently washed using TBS-T (50 mM Tris pH 7.3, 150 mM NaCl and 0.1% Tween20). Bound protein is detected by the FLAG-tag using 1:3000 anti-FLAG-HRP (Sigma A-8592) in PBS-T, or by 1:1000 Ni-NTA-HRP (Qiagen 34530) in PBS-T. The HRP reaction Is performed using the TMB substrate (Biosource 4501103 or Tebu Bio 101TMB100-500), stopped using 10% H2SO4 and absorbance was measured at 450 nm.

[8] = 1 mg ml^−1 protein exposed to 600 μg ml^−1 LPS (FIG. 4C)

T1 sequence (P00750 36-562): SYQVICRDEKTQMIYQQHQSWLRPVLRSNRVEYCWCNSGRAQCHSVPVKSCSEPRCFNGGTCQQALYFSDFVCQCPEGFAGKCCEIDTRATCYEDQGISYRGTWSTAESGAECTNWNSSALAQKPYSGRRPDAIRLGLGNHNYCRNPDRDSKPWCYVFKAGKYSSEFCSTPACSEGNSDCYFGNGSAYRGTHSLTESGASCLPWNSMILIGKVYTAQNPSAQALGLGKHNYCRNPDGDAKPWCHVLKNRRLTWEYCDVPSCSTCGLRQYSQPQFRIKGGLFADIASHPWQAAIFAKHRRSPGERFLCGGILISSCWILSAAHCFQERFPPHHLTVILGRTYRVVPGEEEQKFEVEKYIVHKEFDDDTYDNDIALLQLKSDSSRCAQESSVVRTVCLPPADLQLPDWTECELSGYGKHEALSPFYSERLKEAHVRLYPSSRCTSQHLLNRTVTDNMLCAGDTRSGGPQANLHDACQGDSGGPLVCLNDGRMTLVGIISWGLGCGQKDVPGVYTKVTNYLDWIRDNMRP

B1: endostatin: protein therapeutic endostatin (EntreMed, Inc.) (protein)
chain: HSHRDFQPVLHLVALNSPLSGGMRGIRGADFQCFQQARAVGLAGTFRAFLSSRLQDLYSIVRRADRAAVPIVNLKDELLFPSWEALFSGSEGPLKPGARIFSFDGKDVLRHPTWPQKSVWHGSDPNGRRLTESYCETWRTEAPSATGQASSLLGGRLLGQSAASCHHAYIVLCIENSFMTASK
[1]
  stimulation of tPA-mediated conversion of Plg to Pls: absence of tPA activating properties
[2]
  increased ThT fluorescence: approximately 10 factor
[2]; 10.4 μg ml^−1 CPG-ODN
  increase in ThT fluorescence: ~39 times
[2]; 21.7 μg ml^−1 CPG-ODN
  increase in ThT fluorescence: ~56 times
[3]; 200 μg ml^−1 LPS (FIG. 4D, E)
  ThT fluorescence enhancement: approximately 8 times
[3]; 400 μg ml^−1 LPS (FIG. 4D, E)
  ThT fluorescence enhancement: ~20 times
[3]; 600 μg ml^−1 LPS (FIG. 4D, E)
  ThT fluorescence enhancement: ~26 times
[3]; [8]
  ThT fluorescence enhancement: approximately 10 times

B2: recombinant β2GPI: recombinant human β2-glycoprotein I made using insect cells (protein)
chain: GRTCPKPDDLPFSTVVPLKTFYEPGEEITYSCKPGYVSRGGMRKFICPLTGLWPINTLKCTPRVCPFAGILENGAVRYTTFEYPNTISFSCNTGFYLNGADSAKCTEEGKWSPELPVCAPIICPPPSIPTFATLRVYKPSAGNNSLYRDTAVFECLPQHAMFGNDTITCTTHGNWTKLPECREVKCPFPSRPDNGFVNYPAKPTLYYKDKATFGCHDGYSLDGPEEIECTKLGNWSAMPSCKASCKVPVKKATVVYQGERVKIQEKFKNGMLHGDKVSFFCKNKEKKCSYTEDAQCIDGTIEVPKCFKEHSSLAFWKTDASDVKPC
[4]
  inhibition of binding of anti-β2GPI auto-antibodies to immobilized β2GPI: efficiently inhibits binding
[1]
  stimulation of tPA-mediated conversion of Plg to Pls: stimulate tPA-mediated conversion of Plg to Pls
[2]
  increased ThT fluorescence: approximately 5 factor
[3]; [8]
  ThT fluorescence enhancement: ~4 times
[5]; 25 μg ml^−1 β2GPI, 100 μM CL vesicles or 250 μg ml^−1 DXS
  ThT fluorescence after exposure to CL vesicles or DXS: increased fluorescence of ThT
[5]; without CL or DXS500k
  ThT fluorescence signal of β2GPI preparation: higher ThT fluorescence signal

B3: nOVA: native chicken ovalbumin (protein)
chain: GSIGAASMEFCFDVFKELKVHHANENIFYCPIAIMSALAMVYLGAKDSTRTQINKVVRFDKLPGFGDSIEAQCGTSVNVHSSLRDILNQITKPNDVYSFSLASRLYAEERYPILPEYLQCVKELYRGGLEPINFQTAADQARELINSWVESQTNGIIRNVLQPSSVDSQTAMVLVNAIVFKGLWEKAFKDEDTQAMPFRVTEQESKPVQMMYQIGLFRVASMASEKMKILELPFASGTMSMLVLLPDEVSGLEQLESIINFEKLTEWTSSNVMEERKIKVYLPRMKMEEKYNLTSVLMAMGITDVFSSSANLSGISSAESLKISQAVHAAHAEINEAGREVVGSAEAGVDAASVSEEFRADHPFLFCIKHIATNAVLFFGRCVSP
[6]
  anti-nOVA antibody titers in pooled sera: Titers were also obtained

B4: reduced and alkylated OVA: reduced and alkylated ovalbumin (protein)
chain: GSIGAASMEFCFDVFKELKVHHANENIFYCPIAIMSALAMVYLGAKDSTRTQINKVVRFDKLPGFGDSIEAQCGTSVNVHSSLRDILNQITKPNDVYSFSLASRLYAEERYPILPEYLQCVKELYRGGLEPINFQTAADQARELINSWVESQTNGIIRNVLQPSSVDSQTAMVLVNAIVFKGLWEKAFKDEDTQAMPFRVTEQESKPVQMMYQIGLFRVASMASEKMKILELPFASGTMSMLVLLPDEVSGLEQLESIINFEKLTEWTSSNVMEERKIKVYLPRMKMEEKYNLTSVLMAMGITDVFSSSANLSGISSAESLKISQAVHAAHAEINEAGREVVGSAEAGVDAASVSEEFRADHPFLFCIKHIATNAVLFFGRCVSP
[7]
  affinity of fibronectin F4,5 (detection anti-FLAG HRP): acted as its native control
